B1: intersectin 1 (aa 437-584) (other, UniProt Q15811 437-584, looked up)
chain: AKRELERQRQLEWERNRRQELLNQRNKEQEDIVVLKAKKKTLEFELEALNDKKHQLEGKLQDIRCRLTTQRQEIESTNKSRELRIAEITHLQQQLQESQQMLGRLIPEKQILNDQLKQVQQNSLHRDSLVTLKRALEAKELARQHLRD
notes: range 437-584
B2: GTPase-activating protein 1 (aa 1406-1547) (other, UniProt P46940 1406-1547, looked up)
chain: EILETPATSEQEAEHQRAMQRRAIRDAKTPDKMKKSKSVKEDSNLTLQEKKEKIQTGLKKLTELGTVDPKNKYQELINDIARDIRNQRRYRQRRKAELVKLQQTYAALNSKATFYGEQVDYYKSYIKTCLDNLASKGKVSKK
notes: range 1406-1547; also called IQGAP1; IQGAP
B3: GTPase-activating protein 1 (aa 1463-1568) (other, UniProt P46940 1463-1568, looked up)
chain: LKKLTELGTVDPKNKYQELINDIARDIRNQRRYRQRRKAELVKLQQTYAALNSKATFYGEQVDYYKSYIKTCLDNLASKGKVSKKPREMKGKKSKKISLKYTAARL
notes: range 1463-1568; also called IQGAP1; IQGAP
B4: mitotic spindle coiled-coil related protein (aa 942-1021) (other, UniProt Q96R06 942-1021, looked up)
chain: LGSDKSAFTRVASMVSLQPAETPGMEESLAEMSIMTTELQSLCSLLQESKEEAIRTLQRKICELQARLQAQEEQHQEVQK
notes: range 942-1021
B5: GTPase-activating protein 1 (aa 1439-1567) (other, UniProt P46940 1439-1567, looked up)
chain: KKSKSVKEDSNLTLQEKKEKIQTGLKKLTELGTVDPKNKYQELINDIARDIRNQRRYRQRRKAELVKLQQTYAALNSKATFYGEQVDYYKSYIKTCLDNLASKGKVSKKPREMKGKKSKKISLKYTAAR
notes: range 1439-1567; also called IQGAP1; IQGAP
B6: GTPase-activating protein 1 (aa 1439-1565) (other, UniProt P46940 1439-1565, looked up)
chain: KKSKSVKEDSNLTLQEKKEKIQTGLKKLTELGTVDPKNKYQELINDIARDIRNQRRYRQRRKAELVKLQQTYAALNSKATFYGEQVDYYKSYIKTCLDNLASKGKVSKKPREMKGKKSKKISLKYTA
notes: range 1439-1565; also called IQGAP1; IQGAP
B7: intersectin 1 (aa 436-547) (other, UniProt Q15811 436-547, looked up)
chain: AAKRELERQRQLEWERNRRQELLNQRNKEQEDIVVLKAKKKTLEFELEALNDKKHQLEGKLQDIRCRLTTQRQEIESTNKSRELRIAEITHLQQQLQESQQMLGRLIPEKQI
notes: range 436-547
B8: GTPase-activating protein 1 (aa 1404-1553) (other, UniProt P46940 1404-1553, looked up)
chain: LTEILETPATSEQEAEHQRAMQRRAIRDAKTPDKMKKSKSVKEDSNLTLQEKKEKIQTGLKKLTELGTVDPKNKYQELINDIARDIRNQRRYRQRRKAELVKLQQTYAALNSKATFYGEQVDYYKSYIKTCLDNLASKGKVSKKPREMKG
notes: range 1404-1553; also called IQGAP1; IQGAP
B9: hypothetical protein FLJ10540 (aa 2-132) (other, UniProt Q53EZ4 2-132, looked up)
chain: SSRSTKDLIKSKWGSKPSNSKSETTLEKLKGEIAHLKTSVDEITSGKGKLTDKERHRLLEKIRVLEAEKEKNAYQLTEKDKEIQRLRDQLKARYSTTTLLEQLEETTREGERREQVLKALSEEKDVLKQQL
B10: hypothetical protein FLJ10540 (aa 1-120) (other, UniProt Q53EZ4 1-120, looked up)
chain: MSSRSTKDLIKSKWGSKPSNSKSETTLEKLKGEIAHLKTSVDEITSGKGKLTDKERHRLLEKIRVLEAEKEKNAYQLTEKDKEIQRLRDQLKARYSTTTLLEQLEETTREGERREQVLKA
notes: range 1-120
B11: hypothetical protein FLJ10540 (aa 1-115) (other, UniProt Q53EZ4 1-115, looked up)
chain: MSSRSTKDLIKSKWGSKPSNSKSETTLEKLKGEIAHLKTSVDEITSGKGKLTDKERHRLLEKIRVLEAEKEKNAYQLTEKDKEIQRLRDQLKARYSTTTLLEQLEETTREGERRE
notes: range 1-115
B12: hypothetical protein FLJ10540 (aa 1-74) (other, UniProt Q53EZ4 1-74, looked up)
chain: MSSRSTKDLIKSKWGSKPSNSKSETTLEKLKGEIAHLKTSVDEITSGKGKLTDKERHRLLEKIRVLEAEKEKNA
notes: range 1-74
B13: Zinc finger protein 231 (ZNF231) (aa 2308-2438) (other, UniProt Q9UPA5 2308-2438, looked up)
chain: EEPLPTTTPAAIKEAAGAPAPAPLAGQKPPADAAPGGGSGALSRPGFEKEEASQEERQRKQQEQLLQLERERVELEKLRQLRLQEELERERVELQRHREEEQLLVQRELQELQTIKHHVLQQQQEERQAQF
notes: range 2308-2438
B14: Tropomyosin TM30 p1 (TPM4) (aa 91-142) (other, human, UniProt P67936 91-142, looked up)
chain: MKVIENRAMKDEEKMEIQEMQLKEAKHIAEEADRKYEEVARKLVILEGELER
notes: range 91-142
B15: Tropomyosin TM30 p1 (TPM4) (aa 79-142) (other, human, UniProt P67936 79-142, looked up)
chain: EAEKAADESERGMKVIENRAMKDEEKMEIQEMQLKEAKHIAEEADRKYEEVARKLVILEGELER
notes: range 79-142
B16: Chromosome-associated polypeptide HCAP (aa 208-300) (other, human, UniProt Q9UQE7 208-300, looked up)
chain: EELAQYQKWDKMRRALEYTIYNQELNETRAKLDELSAKRETSGEKSRQLRDAQQDARDKMEDIERQVRELKTKISAMKEEKEQLSAERQEQIK
notes: range 208-300
B17: Rho-associated (ROCK1) (aa 462-617) (other, UniProt Q13464 462-617, looked up)
chain: KIMKELDEEGNQRRNLESTVSQIEKEKMLLQHRINEYQRKAEQENEKRRNVENEVSTLKDQLEDLKKVSQNSQLANEKLSQLQKQLEEANDLLRTESDTAVRLRKSHTEMSKSISQLESLNRELQERNRILENSKSQTDKDYYQLQAILEAERRDR
notes: also called Rho-associated coiled coil-containing kinase ROCK1
B18: Golgi autoantigen (Golgin-84) (aa 198-497) (other, UniProt Q8TBA6 198-497, looked up)
chain: SKENVSSNAACPDHTPTPNDDGKSHELSNLRLENQLLRNEVQSLNQEMASLLQRSKETQEELNKARARVEKWNADHSKSDRMTRGLRAQVDDLTEAVAAKDSQLAVLKVRLQEADQLLSTRTEALEALQSEKSRIMQDQSEGNSLQNQALQTFQERLHEADATLKREQESYKQMQSEFAARLNKVEMERQNLAEAITLAERKYSDEKKRVDELQQQVKLYKLNLESSKQELIDYKQKATRILQSKEKLINSLKEGSGFEGLDSSTASSMELEELRHEKEMQREEIQKLMGQIHQLRSELQ
notes: range 198-497
B19: Accessory proteins BAP31/BAP29 (BAP31) (aa 184-246) (other, UniProt P51572 184-246, looked up)
chain: LKADLQKLKDELASTKQKLEKAENQVLAMRKQSEGLTKEYDRLLEEHAKLQAAVDGPMDKKEE
notes: range 184-246
B20: Golgi autoantigen (Golgin-84) (aa 198-501) (other, UniProt Q8TBA6 198-501, looked up)
chain: SKENVSSNAACPDHTPTPNDDGKSHELSNLRLENQLLRNEVQSLNQEMASLLQRSKETQEELNKARARVEKWNADHSKSDRMTRGLRAQVDDLTEAVAAKDSQLAVLKVRLQEADQLLSTRTEALEALQSEKSRIMQDQSEGNSLQNQALQTFQERLHEADATLKREQESYKQMQSEFAARLNKVEMERQNLAEAITLAERKYSDEKKRVDELQQQVKLYKLNLESSKQELIDYKQKATRILQSKEKLINSLKEGSGFEGLDSSTASSMELEELRHEKEMQREEIQKLMGQIHQLRSELQDMEA
notes: range 198-501
B21: hypothetical protein FLJ10540 (aa 115-231) (other, UniProt Q53EZ4 115-231, looked up)
chain: EQVLKALSEEKDVLKQQLSAATSRIAELESKTNTLRLSQTVAPNCFNSSINNIHEMEIQLKDALEKNQQWLVYDQQREVYVKGLLAKIFELEKKTETAAHSLPQQTKKPESEGYLQE
B22: hypothetical protein FLJ10540 (aa 1-110) (other, UniProt Q53EZ4 1-110, looked up)
chain: MSSRSTKDLIKSKWGSKPSNSKSETTLEKLKGEIAHLKTSVDEITSGKGKLTDKERHRLLEKIRVLEAEKEKNAYQLTEKDKEIQRLRDQLKARYSTTTLLEQLEETTRE
notes: range 1-110
B23: hypothetical protein FLJ10540 (aa 1-231) (other, UniProt Q53EZ4 1-231, looked up)
chain: MSSRSTKDLIKSKWGSKPSNSKSETTLEKLKGEIAHLKTSVDEITSGKGKLTDKERHRLLEKIRVLEAEKEKNAYQLTEKDKEIQRLRDQLKARYSTTTLLEQLEETTREGERREQVLKALSEEKDVLKQQLSAATSRIAELESKTNTLRLSQTVAPNCFNSSINNIHEMEIQLKDALEKNQQWLVYDQQREVYVKGLLAKIFELEKKTETAAHSLPQQTKKPESEGYLQE
B24: hypothetical protein FLJ10540 (aa 1-117) (other, UniProt Q53EZ4 1-117, looked up)
chain: MSSRSTKDLIKSKWGSKPSNSKSETTLEKLKGEIAHLKTSVDEITSGKGKLTDKERHRLLEKIRVLEAEKEKNAYQLTEKDKEIQRLRDQLKARYSTTTLLEQLEETTREGERREQV
notes: range 1-117

This is an account of results in patent US7202329 (MYRIAD GENETICS, dated 2007).

The target in one assay is T1, Tsg101 (aa 240-391) (human, UniProt Q99816 240-390).
T1 construct: range 240-391; also called C-terminal fragment of Tsg101; amino acid residues 240-390
T1 sequence (looked up): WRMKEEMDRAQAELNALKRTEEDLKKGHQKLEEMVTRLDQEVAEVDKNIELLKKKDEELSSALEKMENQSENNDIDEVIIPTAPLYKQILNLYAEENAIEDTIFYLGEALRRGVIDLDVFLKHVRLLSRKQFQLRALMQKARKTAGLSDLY
Kind of assay: yeast two-hybrid.
In the case of B1, the binding result was “binds”.

Consider B2, for which the binding result is “binds”.

For the molecule B3, the binding result was “binds”.

For the molecule B4, the binding result is reported as “binds”.

On to B5, for which the binding result is “binds”.

For the molecule B6, the binding result was “binds”.

With B7, the binding result is “binds”.

On to B8, for which the binding result is recorded as “binds”.

The target in a further assay is T2, Tsg101 (aa 140-270) (human, UniProt Q99816 140-270).
T2 construct: range 140-270
T2 sequence (looked up): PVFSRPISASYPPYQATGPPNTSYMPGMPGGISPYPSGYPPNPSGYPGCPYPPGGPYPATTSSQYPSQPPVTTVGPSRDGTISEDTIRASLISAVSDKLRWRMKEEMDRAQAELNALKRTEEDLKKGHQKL
Kind of assay: yeast two-hybrid.
For the molecule B9, the binding result is “binds”.

With B10, the binding result is listed as “binds”.

For B11, the binding result is reported as “binds”.

Regarding B12, the binding result was “binds”.

The next assay deals with T3, Tsg101 (aa 231-391) (human, UniProt Q99816 231-390).
T3 sequence (looked up): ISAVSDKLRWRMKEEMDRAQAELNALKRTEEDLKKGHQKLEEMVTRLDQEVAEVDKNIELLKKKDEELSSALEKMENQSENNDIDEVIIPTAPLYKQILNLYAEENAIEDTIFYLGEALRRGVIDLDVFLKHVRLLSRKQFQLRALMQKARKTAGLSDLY
The assay is described as follows: yeast two-hybrid.
Take B13: the binding result is on record as “binds”.

Consider B14, for which the binding result was “binds”.

Consider B15, for which the binding result is recorded as “binds”.

B16: the binding result was “binds”.

As to B17, the binding result was “binds”.

In a further assay the target is T4, Tsg101 (aa 12-326) (human, UniProt Q99816 12-326).
T4 sequence (looked up): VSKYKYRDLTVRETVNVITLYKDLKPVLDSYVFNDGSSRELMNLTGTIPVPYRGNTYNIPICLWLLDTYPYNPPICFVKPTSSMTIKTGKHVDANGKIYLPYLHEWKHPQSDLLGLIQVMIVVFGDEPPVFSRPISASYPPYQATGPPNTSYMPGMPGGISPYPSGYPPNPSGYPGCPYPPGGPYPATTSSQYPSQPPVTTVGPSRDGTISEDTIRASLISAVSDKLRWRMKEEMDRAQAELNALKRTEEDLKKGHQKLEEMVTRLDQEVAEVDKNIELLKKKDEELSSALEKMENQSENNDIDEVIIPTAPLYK
Kind of assay: yeast two-hybrid.
Turning to B18, the binding result was “binds”.

For B19, the binding result was “binds”.

Consider B20, for which the binding result is reported as “binds”.

The target of another assay is T5, Tsg101 (aa 50-391) (human, UniProt Q99816 50-390).
T5 construct: range 50-391
T5 sequence (looked up): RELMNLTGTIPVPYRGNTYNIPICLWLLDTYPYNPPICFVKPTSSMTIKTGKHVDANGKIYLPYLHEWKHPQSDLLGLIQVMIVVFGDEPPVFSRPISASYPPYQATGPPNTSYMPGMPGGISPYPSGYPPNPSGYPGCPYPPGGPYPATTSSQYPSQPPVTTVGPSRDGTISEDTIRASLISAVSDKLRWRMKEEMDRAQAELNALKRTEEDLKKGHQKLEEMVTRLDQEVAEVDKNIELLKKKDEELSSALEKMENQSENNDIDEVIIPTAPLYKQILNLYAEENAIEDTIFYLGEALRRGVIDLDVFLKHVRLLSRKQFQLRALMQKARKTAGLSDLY
The assay is described as follows: yeast two-hybrid.
As for B21, the binding result is given as “binds”.

For B22, the binding result is reported as “binds”.

For B23, the binding result is on record as “binds”.

As to B24, the binding result was “binds”.
